This data set in a line: protease stability score; higher = more stable; yeast display proteolysis, trypsin and chymotrypsin.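 Also: relative to predicted unfolded state with 0 unfolded-like and 1 meaning tenfold more protease.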
Take “SEDENLIKHVKELLTHRAHTGDERELERLVDPNVKIIVGDKFQIGRELMLETWHRWLEEAGVDQIRLTLHHERIQGDYIILEVTYDVNGREIELTIIHIKVNGKWRLHSMKVR”: the protease stability score came out at 0.529.
In turn, “SDHDKRVMHIWRAVLESYLTGDEHTLKELIDPNTRFFIGDKEYHGMETFSRYARRMYEHLRFSIEVKHEDAINGRYDTHLTLHWEIGDKTDTYDTRLHLDVYDGVVKRLEIRVH” gave a protease stability score of 1.46.
The figure for “DEERENIEKALRLLEHFNKTGNEEDINRLMDPHARSHINGKDVHGREEVVRMLRELGVERIEVEDLEIERSKQVDGRIEIHVHTVVNFNGRHTEFRVEIIAVKVNGKWIMRSVIFE” is 1.56.
Regarding “DEERELLKFFLKAWSKALVTGDEQTLLDLVDPNARNVIGDKDLIGREFLEKVLREMRITEVHIEDIKFQGEFVTSDLRMRVRQGDKEFDIRVRLVVYKYDGRWVFKTFHME”, the protease stability score was determined as 2.23.
The figure for “DEHHERARKVAHLFMRIFETGDEDSMNELLDPNVRWVLIYGDKRFELHGWEELDKDIRRYDHHRLEMKHVEIQGNKADNDTRLRLRFDGKDIETETRLHIRVVDGVMKEVTFDIH” is 0.364.
Under “SEDRKFIKEMFEETFRRWETGDEDHIRRYVDPHTKLRILIDGREHTHHGREEFTKMMIDLSEQLGIKHLHIENLHIQGDKAELRGREEVGDKDEHVTIIAHKVNGQWTIETLHIEVR” stands -0.376; under “DDIEKLMLWALHLFSHALSTGNEELVIRLADPHYRLHIGDWESHGRENFRQFIHEIRMHMKRVDDRDIRVQGEFVRIEGELDGVIFIDGRTFRTRLDTRIILNKVDGRWFIHSNHVH”, 1.27; under “DEEEKATHEAIEEIIETLRTGDEHIMRELMDPHVKVVQGDKEHHGRESFIKWMRLWFERAGVDQIDMRIKDHDSQGEKITLDGSLYVNGVEIDTHIISHKINGRWLNRSVIIQ”, 1.22.
The figure for “DEERELLKRFIELWFHAIKTGDEDQLIRLLDPHVRIDINGVDIHGMEKYIHEHLRLERERGFEIRDFKIKHIEIQGEKAHVDTRLSGMVDGRHVDVRNRFIIYKFNGRWIFHSFHVD” is 1.24; for “SEEDELAHRWVRTWVRAVETGDEDTLTELFDPHARIIITIGDKDIRLHGMHEMLRWYRFFKGMRIELEDMDIQGEKIDTDIRLHQGDKTTTTKLQLHIVNGRMEHVILRVQ” it is 1.54; for “SHNEEQSEREAKLEIEAYLTGDFDTLHRLADPNVRNNIEYGDKEIRLHGREEWVHQFYKLVEEYKGVKIHLQHLEYQGDKVILRIEIRVNGRERVLEIQIHVINGRSKEVNVETHVH” it is 1.18.
Consider “SEEEEEADRLEEHWVKSLLTGDEEELAKNADPNTRLDIDGKIVHGMEHFIRFFSEIFKRVDHTEIRIRDSKFDGDKIHNRVEILIRFNGRTIRIDVRIIMRKVDGRWIHESMHIE”, for which the protease stability score is 1.9.
The figure for “SEEEELMKKAMNTILESLKTGDFHTLENLVDPTARSDINGVILHGRELMHHEWERLLRELGVDVWEINEIHLRYVDGVVRIDIDGKVIIGDKSRTVHLRIIAHKIDGRWHIHSISFEVR” is 1.83.
The figure for “DEDEHLVRYLVEELIKFEQTGNEDEWNRLADPNVRIEINGVENHGREQYRKAFYEWRIHSLTVHHIRIDVQGEKALSIVDTETDGEYNGRQTRVKTNLIIHTKKVDGRWLVHSLVIKTE” is 1.25.
Turning to “DEDRHDVKRWLEFLVKLMETGDEEVLRTLADPNTRVDINGRDNHGWESVVTVLRELGANHIHHIEIKHLHIINGRVHIDMRVHRIQGDKTLDFDIHLHANKYNGRWHLKSVQIH”, the protease stability score was 1.24.
In turn, “SEDDERSEKAAEKWLHNFVTGDFKEMSDNLDPNTRLHVDGKDFVGMELVLKIFEDLWDHLGVDHVLINDSHVHVIDGKLHSHLDVTEEVNGRRRRVEIIIIAVKVNGRWRQKEVHIMFR” showed a protease stability score of 0.794.
“DDQEKLVRKAWELLVRHLHTGDEEHLDKLIDPNTRMTYNGRETHGMELFSHLMTHLRVKDMDLKEVRIVDGRAILDGHLHGEIDGRETTTRTTYIILKIDGRWFVKSVRFE” came in with a protease stability score of 1.15.
Sequence “DHEEEIALEVAEKILKLWLTGDEEIMMELFDPNTRVEINGKKVHGRENVMHILHHEWREIRLKDLRIKRHESVGNKVHLDGRVNGQINGRKHSIHVRIDIEVVDGRITNISIEHS” returned a protease stability score of 1.44.
Under “DERDEETRRAIEWWVEVLKTGNFKDIKELADPNARVHQGDKHFHGMDHFLDFLERLGIDHVQINHIHYFDGKIEIDHHVRIGDKETRVIFISDKIDGRWRITEVQFH” stands 1.13; under “SEEDRLHEEWIEESFKIWETGDEERFWKMVDPEYLFRLDIDGVHLESHGRENAREHFREQLSRLGIKYLDLHEIHLQGNKAILDVRVNFNGQERHVIIRLLIIDGRIKKREIEIR”, 1.41; under “DEDEKYLKEFLRILIEARRTGDEQLLERLMDPRVKLDNENHFSHGREDAVRHLNEHSKEARLESVEVHDVRVFNGVILWDVRIHGDIDGRRDTFNVIIIILKVNGRWRLREFIFT”, 1.39.
Under “DEEDEQREHLLELLFHFLRTGDEELLFRLADPRVRHVWNGRELHGRELVIEILDDELEKMGANHIHIDLERVRMVDGRLDVDGHIVIKIGDKSHFFDMHFHIRKIDGRWVIKDLTIR” stands 0.853.
The figure for “DEHHKHVKEMLDLWRRNMETGDWDEIHKLADPHVRMIIFVGDKEIHSHGREEVHRVLEEWIRRMGVDHLVLHDVTLQGNKIIIDTQRNFDGRYLDTSEIIIVVNGRIKEVTFEEK” is 0.341; for “DEEDREAHEAIRILIDLLRTGDFDSLTRLADPHVRLDIGDKRLHGMKDFSRWILELRIHNFDLRHFDLVGDKIHVEGSLHTEFNGKHHEIHIQINITKVNGRWKIDEVTSL” it is 1.63.
“SELKESATDIMRIYIEAWLTGDFEEITRLADPRMRVINDFNGRTQVNHGRELFRETLKHWRIKHVHIDDMRSFEGRSESHGTVHGQFNGVEDEVRFEVRMVVVDGVLHSMTIIFK” displayed a protease stability score of 1.18.
“TERHEHVLHLLNLFLEEWLTGDWDKFFRLADPNVKYFINGQDIHGRETIRENHEQKWRELRIREIRVHSVDVVGDKAHADITENLEVNGREIRTRSHLDIVVVNGRVHHVRMHVD” returned a protease stability score of 0.544.
Sequence “TEEEKFAEEMLRRFIENLITGDWRELKKLFDPDTKIVFNGREHHGMEWHIEFLREIRITHIEVRDMTLINGVAHANGHEIIIIGDKTLEMDTRINIVTINGRIHSIEIKQR” registered a protease stability score of 2.54.
Under “DELDEQVEELARDIIRNWHTGDEERWEHLADPHVRVTIDGRLHIGREEAMKMLRHWLKRIDHITVNIRRIHVFNGRSEVHSELTMHVGDKNIHHHEIINIVIVDGRIHNQEIHLK” stands 1.39; under “DEKEEVLEKLDRLVMEAMETGDWELITKNFDPNTRITINGRELIGRAEWHRFLEEMRHSIKDYRIRSKREYDGRIEVDTESHFIVNIDGKRIEYETRTHVIMTKIDGKWLFTSVEVR”, 1.97.
With “SEEHRQILHVMHLILELWMTGDEETLYHLADPNVRLLIDGREYHGREQIRKVWEDHHRRADHVDFRLKRFELFENHAHVHGEFIIVVNGVEFRHETELELHVVNGRVKEHNLRIK”, the protease stability score turned out to be 1.35.
Under “DEEERLVRKFSSVVKHIFKTGDWKRFTELADPDTLLIIIIGDKEIRHHGREEITHALREWFRILGIDHFHIRDERYQGDKVELDTEVRYNGQTHDFVIEVIVVDGRAKEFKIRFR” stands 1.67; under “TEDEKLSEDMTQHFIELLFTGDFDKISELADPNVRIHAENRTLVGRESFKRLMKKEIEFFKGARFHIEDLHIYDGRVDIHEIVSYGEFVIRRTIHSHKINGKWLETEVRLG”, 0.929.
As to “SEEDEIMRRLIDITLHAFQTGDWEAVKTMADPNTRLHVNGRDIHGRDEILRFLEKSRRDLGVENIRIDYTDYRQFDGKVKYHGTDIYNGQRLETTIIIVIVDGKMKTETREIR”, the protease stability score was determined as 0.82.
Consider “SEIKEEMDEVSELWQRALETGDEHEVLKLMDPHARIDFDGVDHVGWREVTKSLKHMRIDHIKIRHITVIGNKIDIDGEVNMTVNGQERQETVHIELIVVNGRIRHIRIHLV”, for which the protease stability score is 0.396.
Under “DTEEEILKQYLELLRRQHATGDEDSIKHLVDPNVRNDVNGVDIHGRDRMREWIERHRHNLGIDHIEIRITDLHIIDGRIHLDVRVFYRVDGRTIHMEIYVVLVKVDGRWSVKSRHLH” stands 0.911; under “DEEEKHHHELFKEWSRSLITGDFTTMERMIDPNARFEINGVEFHGMDTLRKFTEHLGWEIEHVHDHRIEVYDGVDHVDTKIRGRIDGRRTETRARIILFIYDGRIKSIHEETK”, 0.631.
Under “DEEERHTREMADWFITLFLTGNEEIMMELADPNMRLEHISEDEHYEYHGMHDVSRWLHELLLKFKNIRVRLRRIRIQGDYVIIHQDLNYNGKRVHVIIIVHIFDGRIKSLRFEFR” stands 1.67; under “DEHDEYLHHLLKVLWELIMTGDEHTFERLADPNVRLEVGNYFHVGRENIREMWKFLHDLLGVDHFRLHIRDLRVFNGVADAEYELRLNQGDKETRIEVRIYVHIVNGVLKSIRIETH”, 1.44; under “TEEDKLIEKAWRLFLHILHTGDWEEFHRLADPHMREDVNGVNLIGREDVLRHFIRLIEELGVKHSHVKDFRIHIFNGVIHTIMDVRTEYGDKSVDVRIHLEIEKIDGRWFLRTARIRLT”, 1.51.
The figure for “SEEEKLLEELAKMFIELWLTGNEEHLMHLADPNVRFRQGDKRSHGRENLKRLLHELHEEIRIHDIRMKDVRFVNGRSIFDGHLIVQVNGVEIRLDAELTIISVNGKIKEIEIRHR” is 1.08.
“SEEEKEMHHIARLFFELWLTGDEETHQRLLDPDAKHSFNGVILHGRDEMIRYWRQFLEEIRLRSIEIRRITSVGDKVHVDSHVDGEVNGRRIVTREYIELEVVDGRWKRVKLHIK” yielded a protease stability score of 1.38.
The figure for “DEREKDVEHWFQRLIEAQITGDEEEFDELADPNVLIEINGRELHGRDDFHKYLKRVDHFEIQHFRHHHRHIFDGKVYFNGHSELHVTVGDKRFRYEDEIHHISLKIDGRWILKSVHFA” is 0.635.
Under “DELEHFALKFAEEWLQHYLTGNEEMISKLHDPHVKLHIGDKDLIGWEKFEEFLRETLSRVDHLHFNIRSVQSQGNKIVFDGKYIVIQGDKRYEFDIEFHIVVFNGRVHRIHYESH” stands 1.58; under “DEEHEETHRWVELFIRHHLTGDEDFIMKMLDPNTRWHIDGRTFHGMETVFDARKKERNKLGADHVRFTSFEIQGDFLHILGSIHIDGKELDEKIIIEVIDGRLNSILVTRR”, 0.661; under “DELEEETRFILEYLRHSWKTGDWRLESRMADPDVRLDVDGKHLHGREMVSHFAKRLSERVDHSEFIERDLRIQGNKIELHGELILRFNGVEVHRELHLHISKVNGRWVLKDIRIG”, 0.831.
The sequence “DEEKKDLDILIEILFEIIYTGNEEKFRELVDPNAKSRVGDKKTHGREDATKLLSKKWRHMRIRTMDVHDFRHYDGQIDVDSRLDGDINGVELLLEVRLILVKYDGRWLIKNIHIQ” returned a protease stability score of 1.43.
In the case of “DEEEEWATEAWKLHLHHHRTGDERMIHELLDPNMRLDFDGVELHGRKLVKEFIERTLRRFDVIDEYDHSDVRIQGDKVDLIQVVRGEIDGRRTHVNQRLIMIKIDGRWVVKHVRLQ”, the protease stability score worked out at 1.23.
